Consider one protein from PMC3699834.

Substrate in the data set: N
The data set can be described thus: cells, lysate or membranes. As to conditions: NH4Cl; oocytes clamped at −120 mV; Michaelis–Menten fit.

B1: AMT1;3 (Arabidopsis thaliana) (protein)
chain: MSGAITCSAADLATLLGPNATAAADYICGQLGTVNNKFTDAAFAIDNTYLLFSAYLVFAMQLGFAMLCAGSVRAKNTMNIMLTNVLDAAAGGLFYYLFGYAFAFGGSSEGFIGRHNFALRDFPTPTADYSFFLYQWAFAIAAAGITSGSIAERTQFVAYLIYSSFLTGFVYPVVSHWFWSPDGWASPFRSADDRLFSTGAIDFAGSGVVHMVGGIAGLWGALIEGPRRGRFEKGGRAIALRGHSASLVVLGTFLLWFGWYGFNPGSFTKILVPYNSGSNYGQWSGIGRTAVNTTLSGCTAALTTLFGKRLLSGHWNVTDVCNGLLGGFAAITAGCSVVEPWAAIVCGFMASVVLIGCNKLAELVQYDDPLEAAQLHGGCGAWGLIFVGLFAKEKYLNEVYGATPGRPYGLFMGGGGKLLGAQLVQILVIVGWVSATMGTLFFILKRLNLLRISEQHEMQGMDMTRHGGFAYIYHDNDDESHRVDPGSPFPRSATPPRV
As usually defined, the Km is the substrate concentration at which the rate is half of its maximum. B1: the Michaelis-Menten constant (Km) turned out to be 55 ± 15 µM.
